What all share (test): fluorescence polarisation; 100 nM BODIPY-FL-labeled EcSufE titrated with EcSufS; 50 mM Mops pH 8.0, 150 mM NaCl, 0.1 mg/ml bovine serum albumin, 25 °C, 30 min; absence of cysteine; apparent KD
What all share (details): both partners purified

Experiment [1] concerns the target T1, H343A EcSufS, C-terminal his-tagged (Escherichia coli, UniProt P77444 1-406, H343A, PLP (pyridoxal 5'-phosphate) cofactor).
T1 construct: EcSufS of Escherichia coli, UniProt P77444, with H343A; also called H343A SufS; source: E. coli BL21(DE3)Δsuf, pET44, autoinduction, purified (Ni2+ HisTrap HP); not shown: His tag, C-terminal, kept
T1 sequence: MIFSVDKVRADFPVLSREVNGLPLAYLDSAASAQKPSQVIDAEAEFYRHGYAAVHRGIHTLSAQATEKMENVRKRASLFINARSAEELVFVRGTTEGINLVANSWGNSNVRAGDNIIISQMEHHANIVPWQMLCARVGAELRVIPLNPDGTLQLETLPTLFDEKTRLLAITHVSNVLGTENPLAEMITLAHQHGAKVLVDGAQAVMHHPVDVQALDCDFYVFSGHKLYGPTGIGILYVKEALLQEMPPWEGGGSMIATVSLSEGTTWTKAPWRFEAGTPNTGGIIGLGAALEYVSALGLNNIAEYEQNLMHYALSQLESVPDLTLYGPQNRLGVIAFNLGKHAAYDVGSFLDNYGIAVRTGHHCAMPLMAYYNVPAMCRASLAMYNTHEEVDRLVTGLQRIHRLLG

The target of experiment [2] is T2, Y354A EcSufS, C-terminal his-tagged (Escherichia coli, UniProt P77444 1-406, Y354A, PLP (pyridoxal 5'-phosphate) cofactor).
T2 construct: EcSufS of Escherichia coli, UniProt P77444, with Y354A; also called Y354A SufS; source: E. coli BL21(DE3)Δsuf, pET44, autoinduction, purified (Ni2+ HisTrap HP); not shown: His tag, C-terminal, kept
T2 sequence: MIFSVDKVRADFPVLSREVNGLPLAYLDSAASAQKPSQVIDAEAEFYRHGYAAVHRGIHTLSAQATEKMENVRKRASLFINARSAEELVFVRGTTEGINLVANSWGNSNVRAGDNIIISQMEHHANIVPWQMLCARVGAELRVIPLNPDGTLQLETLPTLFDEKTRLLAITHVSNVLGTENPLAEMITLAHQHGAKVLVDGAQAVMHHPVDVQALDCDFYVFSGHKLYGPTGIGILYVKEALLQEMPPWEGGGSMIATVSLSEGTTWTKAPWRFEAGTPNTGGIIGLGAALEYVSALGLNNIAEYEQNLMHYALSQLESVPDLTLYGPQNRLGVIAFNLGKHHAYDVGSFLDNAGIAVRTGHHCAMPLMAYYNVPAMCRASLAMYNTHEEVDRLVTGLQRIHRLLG

The target of experiment [3] is T3, D346A EcSufS, C-terminal his-tagged (Escherichia coli, UniProt P77444 1-406, D346A, PLP (pyridoxal 5'-phosphate) cofactor).
T3 construct: EcSufS of Escherichia coli, UniProt P77444, with D346A; also called D346A SufS; source: E. coli BL21(DE3)Δsuf, pET44, autoinduction, purified (Ni2+ HisTrap HP); not shown: His tag, C-terminal, kept
T3 sequence: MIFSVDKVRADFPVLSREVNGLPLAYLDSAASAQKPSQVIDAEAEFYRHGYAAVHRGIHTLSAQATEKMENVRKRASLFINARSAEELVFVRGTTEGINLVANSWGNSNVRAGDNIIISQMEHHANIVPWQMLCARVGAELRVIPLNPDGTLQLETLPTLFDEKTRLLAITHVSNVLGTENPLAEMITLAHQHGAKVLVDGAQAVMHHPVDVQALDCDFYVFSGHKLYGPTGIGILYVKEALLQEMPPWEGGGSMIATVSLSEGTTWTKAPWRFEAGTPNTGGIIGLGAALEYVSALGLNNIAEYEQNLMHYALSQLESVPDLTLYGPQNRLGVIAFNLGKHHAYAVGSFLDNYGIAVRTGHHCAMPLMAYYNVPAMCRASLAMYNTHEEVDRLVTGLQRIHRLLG

Experiment [4] concerns the target T4, F350A EcSufS, C-terminal his-tagged (Escherichia coli, UniProt P77444 1-406, F350A, PLP (pyridoxal 5'-phosphate) cofactor).
T4 construct: EcSufS of Escherichia coli, UniProt P77444, with F350A; also called F350A SufS; source: E. coli BL21(DE3)Δsuf, pET44, autoinduction, purified (Ni2+ HisTrap HP); not shown: His tag, C-terminal, kept
T4 sequence: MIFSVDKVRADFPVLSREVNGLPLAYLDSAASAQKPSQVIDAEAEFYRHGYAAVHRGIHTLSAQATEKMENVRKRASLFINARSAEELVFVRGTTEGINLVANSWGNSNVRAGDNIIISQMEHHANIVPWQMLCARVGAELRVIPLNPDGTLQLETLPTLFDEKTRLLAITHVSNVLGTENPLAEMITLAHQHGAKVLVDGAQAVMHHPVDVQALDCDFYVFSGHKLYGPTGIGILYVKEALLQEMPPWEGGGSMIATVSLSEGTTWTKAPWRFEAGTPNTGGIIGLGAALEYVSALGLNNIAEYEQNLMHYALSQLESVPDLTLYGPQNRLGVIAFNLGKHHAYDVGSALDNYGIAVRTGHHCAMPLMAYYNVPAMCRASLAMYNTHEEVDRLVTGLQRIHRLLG

B1: BODIPY-FL-labeled C51A/E107C EcSufE (natural protein, Escherichia coli)
chain: MALLPDKEKLLRNFLRCANWEEKYLYIIELGQRLPELRDEDRSPQNSIQGAQSQVWIVMRQNAQGIIELQGDSDAAIVKGLIAVVFILYDQMTPQDIVNFDVRPWFCKMALTQHLTPSRSQGLEAMIRAIRAKAAALS
modifications: BODIPY-FL maleimide label (labeling efficiency 60 to 80%)
notes: EcSufE, transpersulfurase SufE of Escherichia coli, UniProt P76194, with C51A and E107C; also called "WT" EcSufE (double mutant background); C51A/E107C EcSufE control
Take B1: the Kd in experiment [1] is more than 20 µM; in experiment [2], more than 20 µM; in experiment [3], more than 40 µM; in experiment [4] it was more than 40 µM.

Values taken from publication PMC11408855, “The structure of the SufS–SufE complex reveals interactions driving protected persulfide transfer in iron-sulfur cluster biogenesis” (The Journal of Biological Chemistry, 2024).
